Reference: patent US20060198894A1, “Stabilized, solid-state polypeptide particles” (priority 2002, published 2006)
Where no end group is shown, it is not given here.

How the values were obtained:
Assay type in all cases: physicochemical
[1] = Stability of solid-state PACAP particles stored at 60° C. for two months, RP-HPLC (recovery / total degradation)
Protocol: (§1) The effect of pH on the stability of PACAP molecules over time was evaluated. In order to make such an evaluation, PACAP raw material was first dissolved in H2O in three different solutions, with the first solution having a pH of 2, the second solution having a pH of 4, and the third solution having a pH of 6. The pH of each solution was adjusted to the desired value using diluted HCl. Each of the three solutions was placed in lyophilization vials, and solid-state PACAP particles were produced from each of the three solutions through the lyophilization process already described herein. Particles from each of the three solutions were then stored for two months at 60° C., and the stability of the PACAP included in the solid-state particles was thereafter evaluated using RP-HPLC and SEC.
(§2) Solid-state PACAP particles were prepared from each of the eight solutions through lyophilization, as has already been described, and solid-state PACAP particles produced from each of the eight solutions were then stored at 60° C. for two months. After exposing the various solid-state PACAP particles to a temperature of 60° C. over two months, the stability of the PACAP included in various particles was evaluated using RP HPLC and SEC processes.
PACAP particles containing histidine buffer (Sigma) and PACAP particles containing histidine buffer in combination with calcium chloride (CaCl2, J T Baker), sucrose and sodium dodecyl sulfate (SDS, Pierce) were prepared and the stabilization of PACAP provided by such particles was evaluated. To prepare the PACAP particles evaluated, six different aqueous solutions were prepared. Each solution included a desired amount of PACAP dissolved therein, and the pH of each of the six solutions prepared was adjusted to 6 by the addition of diluted HCl. The first aqueous solution was prepared without additives (histidine buffer, CaCl2, sucrose, or SDS). The second aqueous solution was prepared with a 10 mM concentration of histidine buffer. The third aqueous solution was formulated with a 10 mM concentration of histidine buffer as well as a 10 mM concentration of CaCl2. The fourth aqueous solution was formulated with a 10 mM concentration of histidine buffer and included sucrose at a 0.5/1 weight ratio (sucrose/PACAP) relative to PACAP. […] The PACAP particles produced from each solution were then stored at 60° C. for two months, and the stability of the PACAP contained within the various different particles was evaluated using RP-HPLC and SEC processes after such storage. […]
To evaluate the stabilizing effect of CaCl2 in PACAP particles prepared at acidic and near neutral pH, four different types of particles were formulated, stored at 60° C. for two months, and then analyzed for PACAP degradation. […]

[2] = Aggregation / dimer formation in solid-state PACAP particles stored at 60° C. for two months, SEC; settings: for dimer formation: two months of storage at 60° C.
Protocol: as §1, §2
PACAP particles containing histidine buffer (Sigma) and PACAP particles containing histidine buffer in combination with calcium chloride (CaCl2, J T Baker), sucrose and sodium dodecyl sulfate (SDS, Pierce) were prepared and the stabilization of PACAP provided by such particles was evaluated. To prepare the PACAP particles evaluated, six different aqueous solutions were prepared. Each solution included a desired amount of PACAP dissolved therein, and the pH of each of the six solutions prepared was adjusted to 6 by the addition of diluted HCl. The first aqueous solution was prepared without additives (histidine buffer, CaCl2, sucrose, or SDS). The second aqueous solution was prepared with a 10 mM concentration of histidine buffer. The third aqueous solution was formulated with a 10 mM concentration of histidine buffer as well as a 10 mM concentration of CaCl2. The fourth aqueous solution was formulated with a 10 mM concentration of histidine buffer and included sucrose at a 0.5/1 weight ratio (sucrose/PACAP) relative to PACAP. The fifth aqueous solution was prepared with a 10 mM concentration of histidine buffer, a 10 mM concentration of CaCl2, and an amount of sucrose providing a 0.5/1 weight ratio (sucrose/PACAP) relative to PACAP. The sixth aqueous solution was formulated with a 10 mM concentration of histidine buffer and 0.02 wt % SDS. Solid-state PACAP particles were then produced from each of the six solutions using the lyophilization process already described herein. The PACAP particles produced from each solution were then stored at 60° C. for two months, and the stability of the PACAP contained within the various different particles was evaluated using RP-HPLC and SEC processes after such storage. […] In addition, sucrose, CaCl2 and SDS further stabilized the peptide, providing roughly 14 fold to 20 fold decreases in aggregate formation.
To evaluate the stabilizing effect of CaCl2 in PACAP particles prepared at acidic and near neutral pH, four different types of particles were formulated, stored at 60° C. for two months, and then analyzed for PACAP degradation. The four different particle formulations were prepared from four different aqueous solutions. Each of the four solutions included a desired amount of PACAP dissolved therein and the pH of each solution was adjusted to the desired level using diluted HCl. The first aqueous solution was formulated without additives (histidine or CaCl2), and the pH of the first solution was adjusted to 2. The second aqueous solution was formulated with a 10 mM concentration of CaCl2, and the pH of the second solution was adjusted to 2. […]

[3] = Stability of PACAP suspended in suspension vehicles at elevated temperature, RP-HPLC and SEC
From the text: Due to the nature of the suspension vehicles used in implantable drug delivery systems, mixing of the suspension formulation bulk and subsequent loading of the suspension formulation into the implantable systems are often conducted at elevated temperatures. To evaluate the stability of PACAP analog (or simply “PACAP”) suspended in various suspension vehicles at elevated temperatures, unprotected, lyophilized PACAP was suspended in four different suspension vehicles (LL/GML/PVP, BA/PVP, EHL/PVP, and PEG/PVP). To suspend the PACAP into the suspension vehicles 3.3 mg PACAP acetate was manually mixed into each of the different suspensions to achieve a PACAP content of approximately 3%. The stability of the PACAP suspension formulations was then evaluated after incubation at 65° C. for four hours.
The PACAP suspensions were then further incubated at 37° C. and 65° C. an additional 17 days. […] (Table 3). […] In addition, other chemical degradation contributed to the loss of lyophilized PACAP.

[4] = Total degradation of lyophilized PACAP with excipients stored at 2-8, 40 and 60° C. up to 3 months, RP-HPLC
Protocol: (§3) The preliminary findings from the processing study led to the evaluation of the stabilization effect of sugar (sucrose) and nonionic surfactant (Tween 80) on PACAP lyophiles and suspensions. In order to carry out the evaluation, samples were prepared with PACAP in 10 mM NH4OAc (pH6.4) at 3 levels of Tween 80 (0, 0.05, 0.2 wt %) and sucrose (0, 0.5/1, 1/1, w/w). A solution of PACAP in 10 mM of histidine (pH 6.4) and sodium succinate (pH 5.6) was also prepared. Each of the PACAP solutions were lyophilized to obtain reconstituted, solid-state PACAP particles, and individual vials were provided 3.3 mg samples of the material reconstituted from each of the solutions, with the samples containing (1) no additive, (2) 0.2 wt % Tween 80, (3) 0.2 wt % Tween 80+0.5:1, w/w sucrose, and (4) 1:1, w/w sucrose. The various 3.3 mg samples were manually mixed with LL/GML/PVP and BA/PVP to provide suspension formulations having about 3% PACAP content, and the suspension formulations were subjected to 4 hours of incubation at 65° C. After the initial incubation period, the various suspension formulations were stored as described below and evaluated by RP-HPLC and SEC.
(§4) Solid-state PACAP particles were prepared via a lyophilization process (FTS Duro stop) from three different polypeptide solutions prepared in NH4OAc buffer at pH6. Each of the three different solutions contained a different amount of sucrose, with the first containing no sucrose, the second containing a weight ratio of sucrose to PACAP of 0.5/1, and the third containing a weight ratio of sucrose to PACAP 1/1. Solid-state PACAP particles prepared from each of the three solutions were stored at control temperatures ranging from 2° C. to 8° C., a temperature approximating physiologic temperature (40° C.), and a temperature exceeding physiologic temperature (60° C.). The stability of the PACAP contained within each group of solid-state PACAP particles was assessed at 24 days and 3 months. To assess PACAP stability within each group of particles, the particles were reconstituted in water and analyzed by reversed-phase RP-HPLC (acetonitrile gradient elution with mobile phase containing 0.1% trifluoroacetic acid, and a UV detection at 214 nm) and size exclusion HPLC (SEC, isocratic elution, 30% acetonitrile mixed with 70% of aqueous solution containing 0.1% trifluoroacetic acid and 200 mM of sodium chloride, and a UV detection at 220 nm).

[5] = Aggregation of lyophilized PACAP and PACAP suspensions with excipients stored at 2-8, 40 and 60° C. up to 3 months, SEC
Protocol: as §3, §4

[6] = Example 2 lyophilized formulations, except samples containing 1:1 w/w sucrose
[7] = lyophilized PACAP, ammonium acetate app. pH 6.4, 40° C. for 3 months (FIG. 1)

PACAP analog: synthetic PACAP-R3 agonist analog manufactured by Bayer; 31 amino acid sequence HSDAVFTDNYTRLRKQVAAKKYLQSIKNKRY (SEQ. I.D. NO. 1) (HSDAVFTDNYTRLRKQVAAKKYLQSIKNKRY; ends and bridges not checked)
effect of acidic pH on stability ([1]; particles lyophilized at pH 2, 4, 6 (HCl), two months at 60° C. (FIG. 9)): greatly improved stability | effect of trehalose and methyl MP on stability ([1]; particles prepared at pH2, relative to pH2 without stabilizing sugar, 60° C. for two months): additive stability | effect of sucrose on stability ([1]; particles prepared at pH2 with sucrose, 60° C. for two months): significant destabilizing effect | effect of CaCl2 on stability ([1]; particles with 10 mM CaCl2 at both pH 2 and 6, 60° C. for two months): further improved the stability | dimer formation ([2]; particles at acidic pH with Ca2+/PACAP analog 4/1 molar ratio): 0.8% | dimer formation ([2]; particles at acidic pH with trehalose/PACAP analog 0.55/1 w/w): 0.7% | decrease in aggregate formation ([2]; particles from pH 6 solution with 10 mM histidine buffer vs no additives, 60° C. for two months): roughly 6 fold | dimer formation ([2]; particles lyophilized from stabilizing solution of apparent pH 2 (diluted HCl), no excipient): 1.1% | improvement in preventing aggregate formation ([2]; particles prepared at pH 6 with sucrose (7.3 molar equivalent), 60° C. for two months): ~6 fold | improvement in preventing aggregate formation ([2]; particles prepared at pH 6 with trehalose (7.3 molar equivalent), 60° C. for two months): ~4 fold | stability of PACAP suspensions ([3]; further incubated at 37° C. an additional 17 days): marginal stability loss | stability of PACAP suspensions ([3]; further incubated at 65° C. an additional 17 days): relatively more aggressive degradation | stability of PACAP suspension formulations ([3]; unprotected lyophilized PACAP, about 3%, in LL/GML/PVP, BA/PVP, EHL/PVP, PEG/PVP, 65° C. for four hours): stable | rate of total degradation at 60° C. relative to 40° C. [4, 6]: about 5 times | rate of total degradation (RP HPLC) at 60° C. relative to 40° C. ([4]; Example 3, NH4OAc buffer pH6, except particles with PACAP to sucrose weight ratio of 1/1): about 5 times | total rate of degradation at 60° C. relative to 40° C. ([4]; PACAP analog contained within particles): approximately five times higher | time stable ([4]; lyophilized PACAP without a stabilizer, at 4° C.): at least 3 months | estimated total degradation ([4]; lyophilized PACAP, apparent pH 6.4 in ammonium acetate, equal amount of sucrose (w/w), in 6 months at 40° C.): 8.4% | rate of aggregation at 60° C. relative to 40° C. [5, 6]: approximately 10 times | rate of aggregation (SEC) at 60° C. relative to 40° C. ([5]; Example 3, NH4OAc buffer pH6, sucrose 0, 0.5/1, 1/1, all formulations tested): 10 times | effect of sucrose on aggregate formation in suspensions ([5]; PACAP suspensions in BA/PVP and LL/GML/PVP, 40° C.): suppressed aggregate formation | effect of Tween 80 on aggregation [5, 7]: no added effect | effect of sucrose on aggregation [5, 7]: suppressed PACAP aggregation | effect of histidine and sodium succinate on aggregate formation ([5]; lyophilized formulations, 40° and 60° C. over 3 months): better stabilizers than ammonium acetate | rate of aggregation or dimerization at 60° C. relative to 40° C. ([5]; solid-state PACAP particles): ten times higher
